The record followed here is PMC10256215, “IFITM1 enhances nonenveloped viral RNA replication by facilitating cholesterol transport to the Golgi” (PLOS Pathogens, 2023).

Common to all, as to experiment: two-hybrid; mammalian two-hybrid (Checkmate, Promega) in Vero cells; pACT and pBIND fusions in both orientations with the pG5luc reporter; firefly/Renilla luciferase at 48 h as fold of the control with empty pACT or pBIND
Details in all cases: partners not purified

For assay [1], the target named is T1, PI4KB (mammalian two-hybrid fusion) (UniProt Q9UBF8 1-816).
T1 construct: PI4KB, Golgi protein; two-hybrid construct not described; Two-hybrid construct not described in the methods; also called phosphatidylinositol 4-kinase IIIβ; source: Vero cells, transfected, mammalian two-hybrid fusion
T1 sequence (Q9UBF8 whole entry, the tested form may be a part): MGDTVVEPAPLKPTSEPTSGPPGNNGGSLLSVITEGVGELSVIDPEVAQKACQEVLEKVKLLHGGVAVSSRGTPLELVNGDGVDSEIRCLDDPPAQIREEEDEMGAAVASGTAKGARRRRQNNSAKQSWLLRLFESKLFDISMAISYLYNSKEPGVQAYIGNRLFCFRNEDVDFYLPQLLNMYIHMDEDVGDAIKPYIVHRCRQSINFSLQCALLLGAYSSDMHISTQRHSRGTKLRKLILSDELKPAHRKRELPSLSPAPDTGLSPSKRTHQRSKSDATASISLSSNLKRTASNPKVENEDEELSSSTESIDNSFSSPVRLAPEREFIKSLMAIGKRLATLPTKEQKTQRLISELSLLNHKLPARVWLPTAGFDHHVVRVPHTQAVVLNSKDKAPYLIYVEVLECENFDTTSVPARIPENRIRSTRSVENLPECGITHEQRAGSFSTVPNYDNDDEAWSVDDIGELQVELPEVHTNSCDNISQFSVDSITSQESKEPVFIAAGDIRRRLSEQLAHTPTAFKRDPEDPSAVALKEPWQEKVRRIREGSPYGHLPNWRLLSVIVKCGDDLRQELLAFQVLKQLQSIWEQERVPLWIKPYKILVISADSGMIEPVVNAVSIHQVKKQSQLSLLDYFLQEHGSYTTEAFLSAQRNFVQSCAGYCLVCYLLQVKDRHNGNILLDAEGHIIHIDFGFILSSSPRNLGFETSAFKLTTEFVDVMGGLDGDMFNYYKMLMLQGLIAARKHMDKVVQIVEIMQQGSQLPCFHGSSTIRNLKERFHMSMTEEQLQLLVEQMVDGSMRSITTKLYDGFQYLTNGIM

Assay [2] addresses T2, ACBD3 (mammalian two-hybrid fusion) (UniProt Q9H3P7 1-528).
T2 construct: ACBD3, Golgi protein; two-hybrid construct not described; Two-hybrid construct not described in the methods; source: Vero cells, transfected, mammalian two-hybrid fusion
T2 sequence (looked up): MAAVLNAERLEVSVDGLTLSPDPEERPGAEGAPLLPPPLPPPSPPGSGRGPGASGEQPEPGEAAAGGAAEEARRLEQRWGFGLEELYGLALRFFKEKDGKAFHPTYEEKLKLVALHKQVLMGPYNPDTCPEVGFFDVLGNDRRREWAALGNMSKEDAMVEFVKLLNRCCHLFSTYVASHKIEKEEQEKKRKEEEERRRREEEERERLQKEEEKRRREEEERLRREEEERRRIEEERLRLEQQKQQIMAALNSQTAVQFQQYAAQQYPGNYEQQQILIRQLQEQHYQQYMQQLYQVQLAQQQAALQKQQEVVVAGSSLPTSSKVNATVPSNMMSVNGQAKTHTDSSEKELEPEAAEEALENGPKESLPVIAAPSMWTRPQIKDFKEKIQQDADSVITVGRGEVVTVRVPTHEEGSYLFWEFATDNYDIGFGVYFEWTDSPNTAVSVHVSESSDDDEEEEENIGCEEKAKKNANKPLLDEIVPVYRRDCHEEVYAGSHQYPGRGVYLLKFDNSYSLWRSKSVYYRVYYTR

The target of assay [3] is T3, OSBP (mammalian two-hybrid fusion) (UniProt P22059 1-807).
T3 construct: two-hybrid construct not described; Two-hybrid construct not described in the methods; source: Vero cells, transfected, mammalian two-hybrid fusion
T3 sequence (looked up): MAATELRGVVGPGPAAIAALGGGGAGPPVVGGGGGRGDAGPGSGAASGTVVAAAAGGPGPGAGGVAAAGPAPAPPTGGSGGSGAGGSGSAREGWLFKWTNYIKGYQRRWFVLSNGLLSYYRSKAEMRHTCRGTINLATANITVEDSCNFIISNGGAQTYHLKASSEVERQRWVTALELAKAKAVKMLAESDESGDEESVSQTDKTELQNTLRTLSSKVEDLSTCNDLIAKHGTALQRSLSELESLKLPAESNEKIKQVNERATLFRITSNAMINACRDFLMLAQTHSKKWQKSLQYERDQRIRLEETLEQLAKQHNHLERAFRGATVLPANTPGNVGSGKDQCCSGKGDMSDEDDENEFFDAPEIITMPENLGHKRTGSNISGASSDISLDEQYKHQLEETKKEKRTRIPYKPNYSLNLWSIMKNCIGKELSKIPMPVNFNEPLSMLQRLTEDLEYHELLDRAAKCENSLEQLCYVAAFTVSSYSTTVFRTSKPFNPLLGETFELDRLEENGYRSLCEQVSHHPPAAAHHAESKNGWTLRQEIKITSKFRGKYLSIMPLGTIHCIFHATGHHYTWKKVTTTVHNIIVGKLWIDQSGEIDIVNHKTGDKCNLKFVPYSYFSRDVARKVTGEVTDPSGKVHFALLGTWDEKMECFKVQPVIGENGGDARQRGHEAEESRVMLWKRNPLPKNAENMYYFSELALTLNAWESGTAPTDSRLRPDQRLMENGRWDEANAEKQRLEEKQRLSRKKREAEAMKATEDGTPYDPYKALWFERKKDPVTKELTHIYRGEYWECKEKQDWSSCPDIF

B1: IFITM1 (mammalian two-hybrid fusion) (natural protein, human, UniProt P13164 1-125, looked up)
chain: MHKEEHEVAVLGPPPSTILPRSTVINIHSETSVPDHVVWSLFNTLFLNWCCLGFIAFAYSVKSRDRKMVGDVTGAQAYASTAKCLNIWALILGILMTIGFILLLVFGSVTVYHIMLQIIQEKRGY
notes: IFITM1, human; coding region amplified by PCR from an OriGene cDNA clone; one fusion partner at a time; also called interferon-induced transmembrane protein 1; pACT-IFITM1; source: Vero cells, transfected, mammalian two-hybrid fusion
In the case of B1, the “fold increase in luciferase activity” value came out at 8.2 fold in assay [1], 84.2 fold in assay [2] and 7.8 fold in assay [3].
